In PMC11234457, “Antitumor Effect of Anti‐c‐Myc Aptamer‐Based PROTAC for Degradation of the c‐Myc Protein”:
Positions count from the first letter of the chain named.

Experiments:
c-Myc [1] = target: T1, c-Myc (Homo sapiens, UniProt P01106 16-454); experiment: ELISA; 200 nM aptamer, 100 ng c-Myc/well; ELISA: c-Myc coated on microplate (100 mM NaHCO3 pH 9.6, 4 C overnight), 2% BSA in PBST block, binding buffer (composition not in material), RT 30 min; conditions: protein: commercial; tags: none (untagged); label: 5' biotin (ELISA, pull-down); FAM (flow)
T1 sequence (P01106 16-454): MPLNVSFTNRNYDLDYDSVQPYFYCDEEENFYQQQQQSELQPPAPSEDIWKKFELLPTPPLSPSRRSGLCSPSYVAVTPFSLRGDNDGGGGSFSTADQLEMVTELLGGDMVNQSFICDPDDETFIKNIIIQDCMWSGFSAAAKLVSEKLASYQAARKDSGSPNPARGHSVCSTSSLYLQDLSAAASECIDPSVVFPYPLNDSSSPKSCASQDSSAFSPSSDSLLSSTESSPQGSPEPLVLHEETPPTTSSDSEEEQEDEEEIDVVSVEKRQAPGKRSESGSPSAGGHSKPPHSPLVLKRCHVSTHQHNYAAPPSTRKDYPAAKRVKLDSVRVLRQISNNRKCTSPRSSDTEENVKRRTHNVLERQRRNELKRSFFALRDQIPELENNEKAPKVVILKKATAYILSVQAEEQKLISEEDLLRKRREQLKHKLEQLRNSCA

c-Myc [2] = target: T1, c-Myc; experiment: ELISA; ELISA: c-Myc coated on microplate (100 mM NaHCO3 pH 9.6, 4 C overnight), 2% BSA in PBST block, binding buffer (composition not in material), RT 30 min; conditions: protein: commercial; tags: none (untagged)
c-Myc [3] = target: T1, c-Myc; experiment: competition ELISA; 200 nM ProMyc, 50 ng c-Myc; ELISA: c-Myc coated on microplate (100 mM NaHCO3 pH 9.6, 4 C overnight), 2% BSA in PBST block, binding buffer (composition not in material), RT 30 min; conditions: protein: commercial; tags: none (untagged); cloverleaf (predicted)
c-Myc [4] = target: T1, c-Myc; experiment: ELISA; comparable to MA9; ELISA: c-Myc coated on microplate (100 mM NaHCO3 pH 9.6, 4 C overnight), 2% BSA in PBST block, binding buffer (composition not in material), RT 30 min; conditions: protein: commercial; tags: none (untagged); label: 5' biotin; FAM; cy3; cloverleaf (predicted)
c-Myc [5] = target: T1, c-Myc; experiment: competition ELISA; affinity consistent with ProMyc; ELISA: c-Myc coated on microplate (100 mM NaHCO3 pH 9.6, 4 C overnight), 2% BSA in PBST block, binding buffer (composition not in material), RT 30 min; conditions: protein: commercial; tags: none (untagged); cloverleaf (predicted)

B1: MA9 (ssDNA)
DNA: CGTTACTTCTGTTCGTTCTCATGGCGAACCCTGTATGGCGCGTAAGTCGGGGAGTAACGTCTGCCTAGTTCCTTGTCTGATCTCCA
Question: Does B1 bind (c-Myc [1])?
Answer: binds

B2: MA9C1-mut (structured_DNA)
DNA: CGTTAATTCTGTTCGTTCTCATGGCGAACCCTGTATGACACGTTTGACGGGGAGTAACG
Question: Does B2 bind (c-Myc [2])?
Answer: no binding

B3: ProMyc (structured_DNA)
DNA: B2 DNA with A6C, A38G, A40G, T44A, T45A, A47T
modifications: 5' NH2-C6 linked to pomalidomide-PEG4
Question: Does B3 bind (c-Myc [3])?
Answer: binds

B4: MA9C1 (structured_DNA)
DNA: B2 DNA with A6C, A38G, A40G, T44A, T45A, A47T
Question: Does B4 bind (c-Myc [4])?
Answer: binds

B5: ProMyc-VHL (structured_DNA)
DNA: B2 DNA with A6C, A38G, A40G, T44A, T45A, A47T
modifications: 5' NH2-C6 linked to (S,R,S)-AHPC-PEG5
Question: Does B5 bind (c-Myc [5])?
Answer: binds
